In publication PMC7505815, “Estrogen receptor alpha (ERα)–mediated coregulator binding and gene expression discriminates the toxic ERα agonist diethylstilbestrol (DES) from the endogenous ERα agonist 17β-estradiol (E2)” (Cell Biology and Toxicology, 2020):

Biological target: T1, Polyhistidine (His) tagged ERα ligand binding domain (amino acids 302–552) (UniProt P03372 302-552)
T1 construct: Detected on the array by a penta-His Alexa Fluor 488 antibody; Always tested with E2, DES or solvent (2% DMSO); also called ERα-LBD; source: partly purified from Escherichia coli (Qiagen)
T1 sequence (looked up): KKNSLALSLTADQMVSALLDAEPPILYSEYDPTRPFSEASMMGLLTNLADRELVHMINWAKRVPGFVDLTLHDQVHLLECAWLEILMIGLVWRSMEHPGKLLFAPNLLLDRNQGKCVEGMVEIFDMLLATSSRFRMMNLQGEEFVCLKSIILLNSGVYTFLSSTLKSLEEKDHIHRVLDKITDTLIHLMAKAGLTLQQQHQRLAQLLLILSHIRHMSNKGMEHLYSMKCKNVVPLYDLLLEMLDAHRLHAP
Assay: peptide or protein array; MARCoNI, PamChip peptide microarray: coregulator motif peptides immobilised; His-ERα-LBD 10 nM (partly purified) in solution with E2 (10^-12 to 10^-5 M), detected with penta-His Alexa Fluor 488 antibody 25 nM; 20 °C; 20 mM Tris-HCl pH 7.5, 500 mM NaCl, 0.2% BSA, 0.05% Tween 20, 2% DMSO
Conditions: both partners purified

B1: TRRAP_3535_3557_C3535S/C3555S (peptide, UniProt Q9Y4A5 3535-3557, looked up)
peptide: SLTESRREERVLQLLRLLNPSLE
notes: Immobilised on the PamChip; also called TRRAP_3535_3557_C3535S/C3535S; source: bought: PamChip peptide microarray, PamGene International BV
binding result: binds
